In patent US20250270308A1 (UCB, published 2025):

Target: T1, human TNFα in complex with compound (1) (human, UniProt P01375 77-233)
T1 construct: also called human TNFα + compound (1); compound-distorted human TNFα
Assay: size exclusion HPLC

T1 sequence (P01375 77-233 limits assumed, one chain of several): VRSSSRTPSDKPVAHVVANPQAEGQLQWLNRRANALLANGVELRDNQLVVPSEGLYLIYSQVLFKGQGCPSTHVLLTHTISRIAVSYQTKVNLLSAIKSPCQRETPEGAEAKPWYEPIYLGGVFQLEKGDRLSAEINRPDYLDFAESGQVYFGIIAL

- stoichiometry: 1 Fab per TNFα trimer
B1: CA185_01979 mouse Fab (no hinge) (Fab, V domains shown)
VH: EVHLVESGPGLVKPSQSLSLTCSVTGYSITNSYWDWIRKFPGNKMEWMGYINYSGSTGYNPSLKSRISISRDTSNNQFFLQLNSITTEDTATYYCARGTYGYNAYHFDYWGRGVMVTVSS
VL: DIQMTQSPASLSASLEEIVTITCQASQDIGNWLSWYQQKPGKSPHLLIYGTTSLADGVPSRFSGSRSGTQYSLKISGLQVADIGIYVCLQAYSTPFTFGSGTKLEIKR
notes: also called CA185_01979 mFab; CA185-01979 Fab fragment
